# Results reported in PMC3520970 (PLoS ONE, 2012).
# T1: His-Myc-tagged MOD (maize, UniProt P25891 17-286, Δ163–164 | Δ167–189, labelled with the crosslinker NHS-SS-Diazirine (SDAD))
# T1 construct: source: E. coli BL21(DE3)pLysS, purified (HisTrap); not shown: Myc, C-terminal, kept
# T1 sequence: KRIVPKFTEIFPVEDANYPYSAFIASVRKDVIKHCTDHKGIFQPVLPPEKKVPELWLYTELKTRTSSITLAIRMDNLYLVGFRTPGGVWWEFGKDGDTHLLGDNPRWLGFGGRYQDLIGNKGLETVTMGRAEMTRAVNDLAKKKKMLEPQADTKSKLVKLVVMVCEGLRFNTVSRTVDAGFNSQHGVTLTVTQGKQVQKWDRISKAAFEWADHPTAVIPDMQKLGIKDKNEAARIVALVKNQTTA
# B1: Maize [Δ1–16, Δ163–164, Δ167–189, Δ287–300]-Pro-RIP (enzyme)
# chain: KRIVPKFTEIFPVEDANYPYSAFIASVRKDVIKHCTDHKGIFQPVLPPEKKVPELWLYTELKTRTSSITLAIRMDNLYLVGFRTPGGVWWEFGKDGDTHLLGDNPRWLGFGGRYQDLIGNKGLETVTMGRAEMTRAVNDLAKKKKMLEPQADTKSKLVKLVVMVCEGLRFNTVSRTVDAGFNSQHGVTLTVTQGKQVQKWDRISKAAFEWADHPTAVIPDMQKLGIKDKNEAARIVALVKNQTTA
# B2: MOD [K158A-K161A] (enzyme)
# chain: KRIVPKFTEIFPVEDANYPYSAFIASVRKDVIKHCTDHKGIFQPVLPPEKKVPELWLYTELKTRTSSITLAIRMDNLYLVGFRTPGGVWWEFGKDGDTHLLGDNPRWLGFGGRYQDLIGNKGLETVTMGRAEMTRAVNDLAAAAAMLEPQADTKSKLVKLVVMVCEGLRFNTVSRTVDAGFNSQHGVTLTVTQGKQVQKWDRISKAAFEWADHPTAVIPDMQKLGIKDKNEAARIVALVKNQTTA
# B3: Maize [Δ1–16, Δ287–300]-Pro-RIP (enzyme)
# chain: KRIVPKFTEIFPVEDANYPYSAFIASVRKDVIKHCTDHKGIFQPVLPPEKKVPELWLYTELKTRTSSITLAIRMDNLYLVGFRTPGGVWWEFGKDGDTHLLGDNPRWLGFGGRYQDLIGNKGLETVTMGRAEMTRAVNDLAKKKKMATLEEEEVQMQMQMPEAADLAAAAAADPQADTKSKLVKLVVMVCEGLRFNTVSRTVDAGFNSQHGVTLTVTQGKQVQKWDRISKAAFEWADHPTAVIPDMQKLGIKDKNEAARIVALVKNQTTA
# B4: P2 on rat liver ribosome (natural protein, rat (endogenous in rat liver ribosome), UniProt P02401 1-115, looked up)
# chain: MRYVASYLLAALGGNSNPSAKDIKKILDSVGIEADDERLNKVISELNGKNIEDVIAQGVGKLASVPAGGAVAVSAAPGSAAPAAGSAPAAAEEKKDEKKEESEESDDDMGFGLFD
# notes: also called P-protein P2
# How the values were obtained:
# [1] = biological target: P2 on rat liver ribosome (rat (endogenous in rat liver ribosome)) (UniProt P02401); settings: scale: arbitrary
# [2] = biological target: Ribosomal protein P2 (UniProt P05387)
# [3] = biological target: Ribosomal protein P2 (UniProt P05387); assay: SPR; BIAcore 3000; P2 amine-coupled to CM5 chip (1300 RU); RIPs injected at 30 µl/min in 20 mM Tris, 30 mM NaCl, 0.005% Tween 20, pH 7.4; KD from RU at equilibrium
# [4] = biological target: Ribosomal protein P2 (UniProt P05387 1-115); assay: cell-based or functional assay
# [5] = biological target: B4; assay: cell-based or functional assay
# [6] = biological target: T1, His-Myc-tagged MOD; assay: cross-linking; SDAD-labelled Myc-MOD (90 µM) with rat liver ribosome (0.8 µM) in PBS, room temperature 30 minutes, UV 365 nm for an hour; western blot with anti-Myc and anti-P; settings: both partners purified
Molecule,"N-glycosidase activity on rat liver ribosome, folds increased to untreated [5]","relative N-glycosidase activity on rat liver ribosome (5 nM RIP, qPCR) [5]",also measured
Trichosanthin (enzyme),,,"relative N-glycosidase activity on rat liver ribosome (5 nM RIP, qPCR) [1]: 2610; cytotoxicity to 293T cells (MTT, 72 hours), EC50 [2]: 0.63 µM; Kd [3]: 612 µM"
B1,14.3 fold,54.3 arbitrary (ratio multiplied by an arbitrary factor),"cytotoxicity to 293T cells (MTT, 72 hours), IC50 (also called EC50) [4]: 7.88 µM"
B2,0.85 fold,3.24 arbitrary (ratio multiplied by an arbitrary factor),
B3,1.59 fold,6.06 arbitrary (ratio multiplied by an arbitrary factor),
B4,,,binding result [6]: binds
